Assay results from patent US20220136002A1 (JACKSON LABORATORY, published 2022).

Target: T1, mouse FLT3 receptor (mouse, UniProt Q00342 28-1000)
T1 construct: whole, on cells; Endogenous receptor of the NSG host mouse, knocked out in the NSG Flt3null-Tg(Hu-FLT3L) line; also called CD135
T1 sequence (looked up): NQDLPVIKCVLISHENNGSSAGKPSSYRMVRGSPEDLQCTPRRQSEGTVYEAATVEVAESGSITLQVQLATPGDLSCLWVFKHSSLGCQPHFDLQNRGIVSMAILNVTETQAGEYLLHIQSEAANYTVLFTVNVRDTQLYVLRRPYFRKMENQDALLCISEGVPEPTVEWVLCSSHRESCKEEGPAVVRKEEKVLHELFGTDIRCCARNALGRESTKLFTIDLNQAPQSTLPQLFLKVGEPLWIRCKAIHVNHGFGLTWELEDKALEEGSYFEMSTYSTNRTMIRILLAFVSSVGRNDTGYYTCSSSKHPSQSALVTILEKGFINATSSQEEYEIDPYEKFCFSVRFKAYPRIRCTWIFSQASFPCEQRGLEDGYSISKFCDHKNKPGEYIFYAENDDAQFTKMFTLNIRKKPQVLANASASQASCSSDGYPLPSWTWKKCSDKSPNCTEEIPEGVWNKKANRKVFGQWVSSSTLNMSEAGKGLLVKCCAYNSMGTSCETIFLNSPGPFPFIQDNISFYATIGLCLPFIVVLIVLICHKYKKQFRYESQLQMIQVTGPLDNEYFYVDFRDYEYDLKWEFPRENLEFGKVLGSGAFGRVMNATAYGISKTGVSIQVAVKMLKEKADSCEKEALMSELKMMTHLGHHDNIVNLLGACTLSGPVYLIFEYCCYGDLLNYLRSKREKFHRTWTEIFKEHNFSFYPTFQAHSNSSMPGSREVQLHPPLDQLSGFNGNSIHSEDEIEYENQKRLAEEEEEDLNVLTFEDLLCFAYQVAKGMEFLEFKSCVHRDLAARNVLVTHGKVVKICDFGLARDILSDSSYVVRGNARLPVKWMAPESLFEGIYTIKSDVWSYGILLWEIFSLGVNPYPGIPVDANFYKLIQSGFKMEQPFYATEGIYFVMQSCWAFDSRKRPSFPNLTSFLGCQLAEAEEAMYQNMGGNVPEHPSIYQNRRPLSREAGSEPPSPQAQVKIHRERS
Assay: no direct binding assay; inferred from in vivo mouse genetics (human FLT3L transgenic NSG mice with and without knock-out of mouse Flt3)

B1: human FLT3 ligand (FLT3L) (ligand, UniProt P49771 27-184, looked up)
chain: TQDCSFQHSPISSDFAVKIRELSDYLLQDYPVTVASNLQDEELCGGLWRLVLAQRWMERLKTVAGSKMQGLLERVNTEIHFVTKCAFQPPPSCLRFVQTNISRLLQETSEQLVALKPWITRQNFSRCLELQCQPDSSTLPPPWSPRPLEATAPTAPQP
notes: Expressed in vivo from a 13.8 kb genomic BAC fragment and circulating in mouse serum; also called Hu-FLT3L
  binding result: binds
